Assay results taken from US20240200046.

System: T1, MIT 11-12x.40 meganuclease (MIT 11-12) (artificial (I-CreI derived, Chlamydomonas reinhardtii))
T1 sequence: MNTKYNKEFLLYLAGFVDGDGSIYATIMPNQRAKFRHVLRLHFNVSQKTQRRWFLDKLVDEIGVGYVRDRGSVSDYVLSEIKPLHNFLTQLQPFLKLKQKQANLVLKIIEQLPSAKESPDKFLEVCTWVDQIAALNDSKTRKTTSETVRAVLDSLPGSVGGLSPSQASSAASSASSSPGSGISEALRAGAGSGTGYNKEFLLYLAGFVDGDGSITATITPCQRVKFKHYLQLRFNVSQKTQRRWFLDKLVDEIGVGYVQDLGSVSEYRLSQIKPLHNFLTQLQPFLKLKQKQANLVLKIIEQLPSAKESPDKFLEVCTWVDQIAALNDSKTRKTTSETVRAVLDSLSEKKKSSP
Assay: cell_activity
Conditions: CHO split-GFP recombination assay, 48 h

wild-type mtDNA tRNA-Ala target site
activity: < 5 % GFP+ cells
